Measured values from US20250122291A1 (CEPHALON, published 2025).
Changes are numbered by the printed parent chain. Values belong to the molecule of their own block, whether it stands above or below them.

Tests used:
[1] = biological target: native rat TrkA on PC12 cells (rat, UniProt P35739 33-799); assay: cell-based or functional assay
[2] = biological target: T1, hTrkB-Extracellular Domain-poly C-terminal Histidine tagged (human, UniProt Q16620 32-430); assay: SPR, target amine-coupled on CM5 chip, 25 C, pH 7.4
T1 construct: extracellular domain; Immobilised on a CM5 chip by amine coupling; also called hTrkB-ECD-His; human TrkB

hp75NTR-His = biological target: T2, hp75NTR-His (human, UniProt P08138 29-250); assay: as above
T2 construct: extracellular domain; Immobilised on a CM5 chip by amine coupling; also called human p75NTR
T2 sequence (looked up): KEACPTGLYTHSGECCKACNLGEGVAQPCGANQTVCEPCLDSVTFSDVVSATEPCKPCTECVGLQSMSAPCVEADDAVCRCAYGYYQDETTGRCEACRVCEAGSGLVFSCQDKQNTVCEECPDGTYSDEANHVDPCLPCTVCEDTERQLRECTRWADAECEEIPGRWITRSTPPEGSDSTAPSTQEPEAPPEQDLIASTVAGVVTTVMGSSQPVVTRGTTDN

hTrkC-ECD-His = biological target: T3, hTrkC-ECD-His (human, UniProt Q16288 32-429); assay: as above
T3 construct: extracellular domain; Immobilised on a CM5 chip by amine coupling; also called human TrkC

[3] = biological target: T4, native human TrkA expressed endogenously on SH-SY5Y cells (human, UniProt P04629 33-796); assay: flow cytometry on SH-SY5Y cells, anti-human IgG Fc secondary, MFI, average of three experiments
T4 construct: whole, on cells

recombinant human TrkA = biological target: T5, recombinant human TrkA (human, UniProt P04629 33-423, limits assumed); assay: SPR, antibody captured on protein A chip, TrkA as analyte, single concentration, 1:1 model
T5 construct: also called hTrkA
T5 sequence (P04629 33-423 limits assumed): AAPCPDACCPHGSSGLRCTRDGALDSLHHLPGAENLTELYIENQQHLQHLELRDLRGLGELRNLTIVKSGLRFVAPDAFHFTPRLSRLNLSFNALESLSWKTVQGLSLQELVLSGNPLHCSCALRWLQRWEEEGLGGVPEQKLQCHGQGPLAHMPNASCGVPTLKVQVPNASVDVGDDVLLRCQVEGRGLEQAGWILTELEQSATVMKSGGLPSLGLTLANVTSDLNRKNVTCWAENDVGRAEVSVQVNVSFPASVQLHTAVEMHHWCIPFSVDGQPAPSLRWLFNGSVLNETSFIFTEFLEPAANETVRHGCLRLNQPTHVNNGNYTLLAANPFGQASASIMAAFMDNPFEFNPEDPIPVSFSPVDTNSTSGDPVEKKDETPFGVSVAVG

native rat TrkA on PC12 cells, sequence (P35739 33-799): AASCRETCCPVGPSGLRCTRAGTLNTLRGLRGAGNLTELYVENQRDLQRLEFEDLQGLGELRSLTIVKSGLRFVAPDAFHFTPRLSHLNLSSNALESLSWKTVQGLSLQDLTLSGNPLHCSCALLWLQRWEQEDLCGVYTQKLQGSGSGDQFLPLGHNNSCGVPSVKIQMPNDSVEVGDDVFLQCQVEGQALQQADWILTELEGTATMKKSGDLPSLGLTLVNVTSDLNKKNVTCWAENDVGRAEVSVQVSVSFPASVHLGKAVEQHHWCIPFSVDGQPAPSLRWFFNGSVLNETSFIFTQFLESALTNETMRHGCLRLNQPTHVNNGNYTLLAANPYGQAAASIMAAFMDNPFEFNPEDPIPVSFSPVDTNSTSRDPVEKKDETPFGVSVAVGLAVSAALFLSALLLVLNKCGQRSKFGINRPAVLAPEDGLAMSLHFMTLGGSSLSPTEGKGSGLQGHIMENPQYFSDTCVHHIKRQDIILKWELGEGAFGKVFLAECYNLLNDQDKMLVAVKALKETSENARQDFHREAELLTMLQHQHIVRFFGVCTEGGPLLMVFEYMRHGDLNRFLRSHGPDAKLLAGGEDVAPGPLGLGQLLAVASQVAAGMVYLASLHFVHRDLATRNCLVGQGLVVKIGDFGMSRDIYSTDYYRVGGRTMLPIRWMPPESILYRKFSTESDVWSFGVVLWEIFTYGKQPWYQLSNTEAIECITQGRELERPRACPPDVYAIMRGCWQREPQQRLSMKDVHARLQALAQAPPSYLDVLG
T1 sequence (Q16620 32-430): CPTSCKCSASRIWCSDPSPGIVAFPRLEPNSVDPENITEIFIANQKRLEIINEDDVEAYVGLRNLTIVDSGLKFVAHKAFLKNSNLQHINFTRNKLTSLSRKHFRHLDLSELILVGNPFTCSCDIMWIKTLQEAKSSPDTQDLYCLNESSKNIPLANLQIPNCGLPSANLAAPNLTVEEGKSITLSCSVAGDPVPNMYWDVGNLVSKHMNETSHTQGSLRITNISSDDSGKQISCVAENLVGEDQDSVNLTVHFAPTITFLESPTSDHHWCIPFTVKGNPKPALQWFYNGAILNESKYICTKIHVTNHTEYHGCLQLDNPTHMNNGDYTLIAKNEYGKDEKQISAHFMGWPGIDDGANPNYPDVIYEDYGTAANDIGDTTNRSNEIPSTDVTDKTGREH
T4 sequence (P04629 33-796): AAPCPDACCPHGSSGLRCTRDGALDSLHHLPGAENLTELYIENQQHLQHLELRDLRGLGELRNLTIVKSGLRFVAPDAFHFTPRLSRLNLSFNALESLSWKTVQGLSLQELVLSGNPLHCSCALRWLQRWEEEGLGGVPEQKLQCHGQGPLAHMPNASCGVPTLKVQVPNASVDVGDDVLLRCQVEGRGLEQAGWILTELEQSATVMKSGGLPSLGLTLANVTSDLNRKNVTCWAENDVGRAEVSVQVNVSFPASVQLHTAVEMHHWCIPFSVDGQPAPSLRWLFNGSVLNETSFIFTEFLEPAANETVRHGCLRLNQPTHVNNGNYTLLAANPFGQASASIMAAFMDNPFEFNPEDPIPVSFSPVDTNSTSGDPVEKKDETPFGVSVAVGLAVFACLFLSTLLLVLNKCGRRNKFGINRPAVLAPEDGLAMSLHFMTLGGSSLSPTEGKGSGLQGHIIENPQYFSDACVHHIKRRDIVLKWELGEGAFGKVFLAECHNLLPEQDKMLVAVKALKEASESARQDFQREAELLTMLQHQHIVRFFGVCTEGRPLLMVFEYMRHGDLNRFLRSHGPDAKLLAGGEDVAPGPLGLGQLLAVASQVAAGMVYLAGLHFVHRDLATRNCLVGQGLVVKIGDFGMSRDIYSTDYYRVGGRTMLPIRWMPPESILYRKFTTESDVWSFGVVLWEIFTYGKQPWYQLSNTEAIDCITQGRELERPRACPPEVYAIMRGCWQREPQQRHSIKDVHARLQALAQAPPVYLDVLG

Molecule: mouse β-NGF (from UniProt P01139 122-241) (ligand)
- Akt phosphorylation in PC12 cells, EC50 [1]: 0.025 nM
- Erk phosphorylation in PC12 cells, EC50 [1]: 0.025 nM
- TrkA receptor phosphorylation in PC12 cells (AlphaLISA p-TrkA Tyr674/675), EC50 [1]: 0.129 nM
- neurite outgrowth in PC12 cells at 138 hours, EC50 [1]: 0.0078 nM

B1: anti-TrkA antibody Ab82, full length (antibody, V domains shown)
VH: QVQLQESGPGLVKPSGTLSLTCAVSGGSISSSNWWTWVRQPPGKGLEWIGEIYHRGNRNYNPSLKSRVTISVDKSKNQFSLKLSSVTAADTAVYYCARAPWFDYWGQGTLVTVSS
VL: SSELTQDPAVSVALGQTVRITCQGDALRSYYASWYQQKPGQAPVLVIYGKGNRPSGIPDRFSGSSSGNTASLTITGAQAEDEADYYCASQASSGNHLIFGGGTKLTVLG
notes: also called full length Ab82; full-length antibody
- binding result [2]: no binding (tested: 1 nM)
- binding result (hp75NTR-His): no binding (tested: 1 nM)
- binding result (hTrkC-ECD-His): no binding (tested: 1 nM)
- Akt phosphorylation in PC12 cells, EC50 [1]: 0.501 nM
- Erk phosphorylation in PC12 cells, EC50 [1]: 0.54 nM
- TrkA receptor phosphorylation in PC12 cells (AlphaLISA p-TrkA Tyr674/675), EC50 [1]: 0.341 nM
- neurite outgrowth in PC12 cells at 138 hours, EC50 [1]: 0.0858 nM
- EC50 [3]: 275 nM

B2: anti-TrkA antibody Ab386 (antibody, V domains shown)
VH: QVQLQESGPGLVKPSGTLSLTCAVSGGSISSSNWWTWVRQPPGKGLEWIGEIYHRGNRNYNPSLKSRVTISVDKSKNQFSLKLSSVTAADTAVYYCARAPWFDYWGQGTLV
VL: B1 VL with A26S, G51N, A88N, A91D
- Akt pathway activation (pEC50) [1]: 9 pEC50
- Erk pathway activation (pEC50) [1]: 9.23 pEC50
- Neurite outgrowth (pEC50) [1]: 10.1 pEC50
- Kd (recombinant human TrkA): 1.15 nM
- koff (recombinant human TrkA): 0.000305 s⁻¹
- kon (recombinant human TrkA): 266000 M⁻¹ s⁻¹

B4: anti-TrkA antibody Ab523 (antibody, V domains shown)
VH: B2 VH with I29V, S32G, S84N, Y95F, W101F
VL: B1 VL with A26S, G51N, G67W, A88N, A91D
- Kd (recombinant human TrkA): 1.3 nM
- koff (recombinant human TrkA): 0.000258 s⁻¹
- kon (recombinant human TrkA): 199000 M⁻¹ s⁻¹

B6: anti-TrkA antibody Ab3 (antibody, V domains shown)
VH: B2 VH with I29V, S32G, R58T, S84N, Y95F, W101F
VL: B1 VL with A26S, Y48F, G51N, A88N, A91V, S93G
- Akt pathway activation (pEC50) [1]: 8.67 pEC50
- Erk pathway activation (pEC50) [1]: 8.86 pEC50
- Neurite outgrowth (pEC50) [1]: 9.79 pEC50
- Kd (recombinant human TrkA): 2.1 nM
- koff (recombinant human TrkA): 0.000614 s⁻¹
- kon (recombinant human TrkA): 293000 M⁻¹ s⁻¹

B7: anti-TrkA antibody Ab476 (antibody, V domains shown)
VH: B2 VH with W101F, Y104R
VL: B1 VL with A26S, Y48H, G51N, A88N, A91D
- Kd (recombinant human TrkA): 1.25 nM
- koff (recombinant human TrkA): 0.0003 s⁻¹
- kon (recombinant human TrkA): 240000 M⁻¹ s⁻¹

B8: anti-TrkA antibody Ab49 (antibody, V domains shown)
VH: B2 VH with Q1E
VL: SSELTQDPAVSVALGQTVRITCQGDSLRSYYASWYQQKPGQAPVLVIYGKNNRPSGIPDRFSGSSSGNTASLTITGAQAEDEADYYCASQASSGNHLIFGGGTKLT
- Akt pathway activation (pEC50) [1]: 9.12 pEC50
- Erk pathway activation (pEC50) [1]: 9.29 pEC50
- Neurite outgrowth (pEC50) [1]: 10.1 pEC50
- Kd (recombinant human TrkA): 1.78 nM
- koff (recombinant human TrkA): 0.000472 s⁻¹
- kon (recombinant human TrkA): 264000 M⁻¹ s⁻¹

B11: anti-TrkA antibody Ab70 (antibody, V domains shown)
VH: B2 VH with Q1E
VL: B8 VL with S26A
- Akt pathway activation (pEC50) [1]: 9.05 pEC50
- Erk pathway activation (pEC50) [1]: 9.21 pEC50
- Neurite outgrowth (pEC50) [1]: 10 pEC50
- Kd (recombinant human TrkA): 1.63 nM
- koff (recombinant human TrkA): 0.000432 s⁻¹
- kon (recombinant human TrkA): 265000 M⁻¹ s⁻¹

B12: anti-TrkA antibody Ab82 (as in Tables 4 and 6) (antibody, V domains shown)
VH: B2 VH
VL: B8 VL with S26A, N51G
- Akt pathway activation (pEC50) [1]: 9.09 pEC50
- Erk pathway activation (pEC50) [1]: 9.14 pEC50
- Neurite outgrowth (pEC50) [1]: 9.99 pEC50
- Kd (recombinant human TrkA): 1.75 nM
- koff (recombinant human TrkA): 0.000443 s⁻¹
- kon (recombinant human TrkA): 253000 M⁻¹ s⁻¹

B14: anti-TrkA antibody Ab67 (antibody, V domains shown)
VH: B2 VH with Q1E
VL: B8 VL with S26A, A88N
- Akt pathway activation (pEC50) [1]: 9.07 pEC50
- Erk pathway activation (pEC50) [1]: 9.28 pEC50
- Neurite outgrowth (pEC50) [1]: 9.96 pEC50
- Kd (recombinant human TrkA): 1.91 nM
- koff (recombinant human TrkA): 0.000477 s⁻¹
- kon (recombinant human TrkA): 250000 M⁻¹ s⁻¹

B18: anti-TrkA antibody Ab145 (antibody, V domains shown)
VH: B2 VH with Q1E
VL: B8 VL with D25L, N52K
- Akt pathway activation (pEC50) [1]: 9.68 pEC50
- Erk pathway activation (pEC50) [1]: 9.89 pEC50
- Neurite outgrowth (pEC50) [1]: 10.1 pEC50
- Kd (recombinant human TrkA): 1.5 nM
- koff (recombinant human TrkA): 0.000299 s⁻¹

B19: anti-TrkA antibody Ab122 (antibody, V domains shown)
VH: B2 VH with Q1E
VL: B8 VL with D25A, N52K
- Akt pathway activation (pEC50) [1]: 9.5 pEC50
- Erk pathway activation (pEC50) [1]: 9.88 pEC50
- Neurite outgrowth (pEC50) [1]: 9.6 pEC50
- Kd (recombinant human TrkA): 1.45 nM
- koff (recombinant human TrkA): 0.000294 s⁻¹

B20: anti-TrkA antibody Ab101 (antibody, V domains shown)
VH: B2 VH with Q1E
VL: B8 VL with D25G, N51G, A88N, A91D
- Akt pathway activation (pEC50) [1]: 9.2 pEC50
- Erk pathway activation (pEC50) [1]: 9.45 pEC50
- Neurite outgrowth (pEC50) [1]: 10 pEC50
- Kd (recombinant human TrkA): 1.29 nM
- koff (recombinant human TrkA): 0.000352 s⁻¹
- kon (recombinant human TrkA): 273000 M⁻¹ s⁻¹

B21: anti-TrkA antibody Ab79 (antibody, V domains shown)
VH: B2 VH with Q1E
VL: B8 VL with S26A, N51G, A88N
- Akt pathway activation (pEC50) [1]: 8.97 pEC50
- Erk pathway activation (pEC50) [1]: 9.21 pEC50
- Neurite outgrowth (pEC50) [1]: 10.2 pEC50
- Kd (recombinant human TrkA): 1.67 nM
- koff (recombinant human TrkA): 0.000421 s⁻¹
- kon (recombinant human TrkA): 252000 M⁻¹ s⁻¹

Further molecules by falling Kd (recombinant human TrkA), results first:

- Akt pathway activation (pEC50) [1]: 9.53 pEC50
- Erk pathway activation (pEC50) [1]: 10.2 pEC50
- Neurite outgrowth (pEC50) [1]: 9.81 pEC50
- Kd (recombinant human TrkA): 1.23 nM
- koff (recombinant human TrkA): 0.000277 s⁻¹
B15: anti-TrkA antibody Ab96 (antibody, V domains shown)
VH: B2 VH with Q1E
VL: B8 VL with D25G, N52K, A88N

- Akt pathway activation (pEC50) [1]: 9.03 pEC50
- Erk pathway activation (pEC50) [1]: 9.23 pEC50
- Neurite outgrowth (pEC50) [1]: 10.1 pEC50
- Kd (recombinant human TrkA): 1.21 nM
- koff (recombinant human TrkA): 0.000327 s⁻¹
- kon (recombinant human TrkA): 271000 M⁻¹ s⁻¹
B16: anti-TrkA antibody Ab124 (antibody, V domains shown)
VH: B2 VH with Q1E
VL: B8 VL with D25A, N51G, A88N, A91D

- Akt pathway activation (pEC50) [1]: 9.25 pEC50
- Erk pathway activation (pEC50) [1]: 9.11 pEC50
- Neurite outgrowth (pEC50) [1]: 10.1 pEC50
- Kd (recombinant human TrkA): 1.19 nM
- koff (recombinant human TrkA): 0.000314 s⁻¹
- kon (recombinant human TrkA): 264000 M⁻¹ s⁻¹
B10: anti-TrkA antibody Ab147 (antibody, V domains shown)
VH: B2 VH with Q1E
VL: B8 VL with D25L, N51G, A88N, A91D

- Akt pathway activation (pEC50) [1]: 9.25 pEC50
- Erk pathway activation (pEC50) [1]: 10.2 pEC50
- Neurite outgrowth (pEC50) [1]: 10.2 pEC50
- Kd (recombinant human TrkA): 1.11 nM
- koff (recombinant human TrkA): 0.000265 s⁻¹
B9: anti-TrkA antibody Ab119 (antibody, V domains shown)
VH: B2 VH with Q1E
VL: B8 VL with D25A, N52K, A88N

- Akt pathway activation (pEC50) [1]: 9.53 pEC50
- Erk pathway activation (pEC50) [1]: 9.54 pEC50
- Neurite outgrowth (pEC50) [1]: 9.97 pEC50
- Kd (recombinant human TrkA): 0.999 nM
- koff (recombinant human TrkA): 0.000254 s⁻¹
B17: anti-TrkA antibody Ab142 (antibody, V domains shown)
VH: B2 VH with Q1E
VL: B8 VL with D25L, N52K, A88N

- Akt pathway activation (pEC50) [1]: 9.57 pEC50
- Erk pathway activation (pEC50) [1]: 9.78 pEC50
- Neurite outgrowth (pEC50) [1]: 9.95 pEC50
- Kd (recombinant human TrkA): 0.943 nM
- koff (recombinant human TrkA): 0.000211 s⁻¹
B13: anti-TrkA antibody Ab76 (antibody, V domains shown)
VH: B2 VH with Q1E
VL: B8 VL with S26A, N52K

- Kd (recombinant human TrkA): 0.875 nM
- koff (recombinant human TrkA): 0.000244 s⁻¹
- kon (recombinant human TrkA): 279000 M⁻¹ s⁻¹
B5: anti-TrkA antibody Ab449 (antibody, V domains shown)
VH: B2 VH with Y104R
VL: B1 VL with A26S, G51N, A88N, A91D

- Kd (recombinant human TrkA): 0.815 nM
- koff (recombinant human TrkA): 0.000216 s⁻¹
- kon (recombinant human TrkA): 265000 M⁻¹ s⁻¹
B3: anti-TrkA antibody Ab676 (antibody, V domains shown)
VH: B2 VH with I29V, S32G, R58T, S84N, Y95F, W101F
VL: B1 VL with A26S, Y48H, G51N, A88N, A91V, S92Y, S93G
